Patent US20240084027A1 (BEIJING MABWORKS, published 2024)
Where two headings read alike, the source gives them in different places. Values belong to the binder of their own block, whether it stands above or below them.

Tests used:
[1] = biological target: T1, mouse CD40 on HEK293A cells (mouse, UniProt P27512 20-289); assay: FACS on HEK293A cells expressing mouse CD40
T1 sequence: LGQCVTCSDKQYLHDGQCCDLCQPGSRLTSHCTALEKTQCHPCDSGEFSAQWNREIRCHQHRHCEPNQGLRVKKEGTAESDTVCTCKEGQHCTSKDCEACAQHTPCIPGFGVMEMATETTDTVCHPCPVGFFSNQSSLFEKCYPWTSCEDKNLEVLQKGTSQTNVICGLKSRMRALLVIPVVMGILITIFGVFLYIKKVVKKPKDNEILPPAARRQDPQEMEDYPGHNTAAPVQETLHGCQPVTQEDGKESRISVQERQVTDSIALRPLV
Description: (§1) The bispecific antibodies as prepared above were tested for their binding capability to cell surface human, monkey and mouse CD40 proteins by FACS, using the HEK293A cells prepared in Example 1 that stably expressed human, monkey or mouse CD40. Briefly, a 96-well plate was seeded with 10⁵ HEK293A cells in 50 μl PBS, and then added with 100 μl serially diluted anti-CD40 antibody 714VH2VL2 and the bispecific antibodies of the disclosure (starting concentration at 40 μg/ml). After incubation at 4° C. for 1 h, the plate was washed by PBST for 3 times. The plate was added with 1:500 diluted APC-goat anti-mouse IgG (Cat #:405308, BioLegen, USA), incubated at 4° for 1 h, washed with PBS for 3 times, and subjected to fluorescence measurement in a FACS machine (BD).

[2] = biological target: T2, human PD-L1 on HEK293A/human PD-L1 cells (human, UniProt Q9NZQ7 19-290); assay: FACS on HEK293A/human PD-L1 cells
T2 sequence (Q9NZQ7 19-290 limits assumed): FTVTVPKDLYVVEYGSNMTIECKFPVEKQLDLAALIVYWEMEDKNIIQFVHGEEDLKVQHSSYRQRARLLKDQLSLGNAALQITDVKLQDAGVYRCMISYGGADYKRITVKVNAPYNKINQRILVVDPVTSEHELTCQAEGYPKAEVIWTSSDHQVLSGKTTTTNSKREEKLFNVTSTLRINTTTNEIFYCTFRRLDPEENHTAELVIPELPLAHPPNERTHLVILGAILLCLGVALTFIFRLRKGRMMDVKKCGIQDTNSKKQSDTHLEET
Description: as §1
(§2) Following the protocol of Example 4, the bispecific antibodies were tested for their binding capability to cell surface human, or monkey PD-L1 proteins by FACS, using the HEK293A cells prepared in Example 1 that stably expressed human or monkey […].

[3] = biological target: T3, human CD40 on HEK293A/human CD40 cells (human, UniProt P25942 21-277); assay: FACS on HEK293A/human CD40 cells
T3 construct: also called HEK-Blue/CD40 cells
Description: as §1

[4] = biological target: monkey PD-L1 on HEK293A/monkey PD-L1 cells (monkey, UniProt Q9NZQ7 19-290 (human entry)); assay: FACS on HEK293A/monkey PD-L1 cells
monkey PD-L1 on HEK293A/monkey PD-L1 cells, sequence (Q9NZQ7 other isoform, or with tags, fused parts or gaps limits assumed): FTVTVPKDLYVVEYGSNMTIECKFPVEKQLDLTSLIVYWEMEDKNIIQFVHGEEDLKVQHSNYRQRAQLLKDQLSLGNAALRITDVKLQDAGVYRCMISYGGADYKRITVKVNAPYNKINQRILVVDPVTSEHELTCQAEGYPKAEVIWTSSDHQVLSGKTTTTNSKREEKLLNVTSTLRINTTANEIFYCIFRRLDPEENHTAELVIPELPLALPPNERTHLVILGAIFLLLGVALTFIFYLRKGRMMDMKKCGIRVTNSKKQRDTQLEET
Description: as §1, §2

[5] = biological target: T4, monkey CD40 on HEK293A/monkey CD40 cells (monkey, UniProt P25942 21-277 (human entry)); assay: FACS on HEK293A/monkey CD40 cells
T4 chain: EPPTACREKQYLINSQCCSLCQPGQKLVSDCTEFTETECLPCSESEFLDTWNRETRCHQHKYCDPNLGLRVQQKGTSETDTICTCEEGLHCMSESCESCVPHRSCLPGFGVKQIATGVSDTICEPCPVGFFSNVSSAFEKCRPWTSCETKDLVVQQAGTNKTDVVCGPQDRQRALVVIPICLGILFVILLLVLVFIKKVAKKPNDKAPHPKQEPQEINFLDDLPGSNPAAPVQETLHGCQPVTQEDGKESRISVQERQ
Description: as §1

[6] = biological target: T3, human CD40 on HEK293A/human CD40 cells; assay: FACS on HEK293A/human CD40 cells; remark: listed apart in the source
Description: as §1
(§3) Following the protocols in Example 4 and Example 5, the bi- or multi-specific antibodies of the disclosure were tested for their binding capability to human PD-L1 and human CD40 proteins by FACS using the HEK293A cells prepared in Example 1 that stably expressed human PD-L1 or human CD40.

[7] = biological target: T2, human PD-L1 on HEK293A/human PD-L1 cells; assay: FACS on HEK293A/human PD-L1 cells; remark: listed apart in the source
Description: as §1, §3

[8] = biological target: T2, human PD-L1 on HEK293A/human PD-L1 cells; assay: FACS blocking assay on HEK293A/human PD-L1 cells; blocked ligand PD-1-Fc
Description: The bispecific antibodies were tested for their blocking activity on PD-1-PD-L1 binding by FACS using the HEK293A cells stably expressing human PD-L1 molecules as prepared in Example 1. Briefly, a 96-well plate was seeded with 10⁵ HEK293A/human PD-L1 cells in 100 μl cell culture medium, and then added with 50 μl serially diluted anti-PD-L1 antibody 56E5VH5VL4 or MBS307-3 molecules. After incubation at 4° C. for 1 h. the plate was washed with PBST for 3 times, added with 100 μl 200 μg/ml PD-1-Fc fusion proteins (Cat #:10377-10211, Sino Biological, CN), incubated at 4° C. for 1 h, washed with PBST for 3 times, and added with 1:500 diluted PE-goat anti-human IgG (Cat #:PAI-86078, Thermofisher, USA). After incubation at 4° C. for 1 h, the plate was washed with PBST for 3 times and measured for fluorescence using a FACS machine (BD).
Following the protocol of Example 7, the bi- or multi-specific antibodies were tested for their capability to block PD-1-PD-L1 binding by FACS, using the HEK293A cells prepared in Example 1 that stably expressed human PD-L1 molecules.

[9] = biological target: T2, human PD-L1 on HEK293A/human PD-L1 cells; assay: FACS on HEK293A/human PD-L1 cells; remark: listed apart in the source
Description: as §1, §3

[10] = biological target: T2, human PD-L1 on HEK293A/human PD-L1 cells; assay: FACS on HEK293A/human PD-L1 cells; remark: listed apart in the source
Description: as §1, §3

EC50 (read off the curve) [2]: ~0.1 µg/mL
binding result [3]: binds
EC50 (read off the curve) [4]: ~0.04 µg/mL
binding result [5]: binds
B1: MBS307-2 (bispecific antibody, human IgG1, kappa, L234A L235A)
heavy: QVQLQESGPGLVKPSQTLSLTCTVSGGSITSDYWNWIRQHPGNKLEYMGYISYTGSTYYNPSLKSRISITRDTSKNQFSLKLSSVTTADTAVYYCARYRDWDVRAMDYWGQGTTVTVSSASTKGPSVFPLAPSSKSTSGGTAALGCLVKDYFPEPVTVSWNSGALTSGVHTFPAVLQSSGLYSLSSVVTVPSSSLGTQTYICNVNHKPSNTKVDKKVEPKSCDKTHTCPPCPAPEAAGGPSVFLFPPKPKDTLMISRTPEVTCVVVDVSHEDPEVKFNWYVDGVEVHNAKTKPREEQYNSTYRVVSVLTVLHQDWLNGKEYKCKVSNKALGAPIEKTISKAKGQPREPQVYTLPPSREEMTKNQVSLTCLVKGFYPSDIAVEWESNGQPENNYKTTPPVLDSDGSFFLYSKLTVDKSRWQQGNVFSCSVMHEALHNHYTQKSLSLSPGSGGGGSGGGGSQVQLQESGPGLVKPSDTLSLTCAVSGYSITTNYYWNWIRQPPGKGLEWMGYIKYDGSNNYNPSLKNRITISVDTSKNQFSLKLSSVTAVDTAVYYCARLDYWGQGTLVTVSSGGGGSGGGGSGGGGSGGGSDVVLTQSPLSLPVTLGQPASISCRSSQSLENSNGNTFLNWFQQRPGQSPRLLIYKVSNRFSGVPDRFSGSGSGTDFTLKISRVEAEDVGVYYCLQVTHVPFTFGQGTKLEIK
light: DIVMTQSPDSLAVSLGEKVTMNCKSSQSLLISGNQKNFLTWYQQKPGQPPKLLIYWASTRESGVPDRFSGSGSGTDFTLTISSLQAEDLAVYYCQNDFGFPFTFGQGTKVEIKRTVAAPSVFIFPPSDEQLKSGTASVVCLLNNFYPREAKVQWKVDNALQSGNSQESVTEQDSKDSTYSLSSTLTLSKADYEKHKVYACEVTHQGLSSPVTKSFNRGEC
notes: Symmetric: full-length anti-PD-L1 antibody (56E5VH5VL4) with an anti-CD40 scFv at the C terminus of each heavy chain
binding result [1]: no binding (tested: starting concentration at 40 µg/ml)

EC50 (read off the curve) [6]: ~0.04 µg/mL
EC50 (read off the curve) [7]: ~0.5 µg/mL
B2: MBS307-8 (bispecific antibody, human IgG1, kappa, L234A L235A)
heavy 1: QVQLQESGPGLVKPSDTLSLTCAVSGYSITTNYYWNWIRQPPGKGLEWMGYIKYDGSNNYNPSLKNRITISVDTSKNQFSLKLSSVTAVDTAVYYCARLDYWGQGTLVTVSSASTKGPSVFPLAPSSKSTSGGTAALGCLVKDYFPEPVTVSWNSGALTSGVHTFPAVLQSSGLYSLSSVVTVPSSSLGTQTYICNVNHKPSNTKVDKKVEPKSCDKTHTCPPCPAPEAAGGPSVFLFPPKPKDTLMISRTPEVTCVVVDVSHEDPEVKFNWYVDGVEVHNAKTKPREEQYNSTYRVVSVLTVLHQDWLNGKEYKCKVSNKALPAPIEKTISKAKGQPREPQVYTLPPSREEMTKNQVSLWCLVKGFYPSDIAVEWESNGQPENNYKTTPPVLDSDGSFFLYSKLTVDKSRWQQGNVFSCSVMHEALHNHYTQKSLSLSPGSGGGGSGGGGSQVQLVQSGAEVKKPGASVKVSCKASGYTFTDYHVNWVRQAPGQGLEWIGWIFPGSGRTFYTDKFKGRVTMTVDTSTSTVYMELSSLRSEDTAVYYCATDYGTSGYGLVYWGQGTTVTVSSGGGGSGGGGSGGGGSGGGGSDIQMTQSPSSLSASVGDRVTITCKASDRINNWLAWYQQKPGKAPKLLISGATSLETGVPSRFSGSGSGTDFTLTISSLQPEDEATYYCQQYWNIPFTFGQGTKLTAK
heavy 2: QVQLQESGPGLVKPSDTLSLTCAVSGYSITTNYYWNWIRQPPGKGLEWMGYIKYDGSNNYNPSLKNRITISVDTSKNQFSLKLSSVTAVDTAVYYCARLDYWGQGTLVTVSSASTKGPSVFPLAPSSKSTSGGTAALGCLVKDYFPEPVTVSWNSGALTSGVHTFPAVLQSSGLYSLSSVVTVPSSSLGTQTYICNVNHKPSNTKVDKKVEPKSCDKTHTCPPCPAPEAAGGPSVFLFPPKPKDTLMISRTPEVTCVVVDVSHEDPEVKFNWYVDGVEVHNAKTKPREEQYNSTYRVVSVLTVLHQDWLNGKEYKCKVSNKALPAPIEKTISKAKGQPREPQVYTLPPSREEMTKNQVSLSCAVKGFYPSDIAVEWESNGQPENNYKTTPPVLDSDGSFFLVSKLTVDKSRWQQGNVFSCSVMHEALHNHYTQKSLSLSPGSGGGGSGGGGSQVQLQESGPGLVKPSQTLSLTCTVSGGSITSDYWNWIRQHPGNKLEYMGYISYTGSTYYNPSLKSRISITRDTSKNQFSLKLSSVTTADTAVYYCARYRDWDVRAMDYWGQGTTVTVSSGGGGSGGGGSGGGGSGGGGSDIVMTQSPDSLAVSLGEKVTMNCKSSQSLLISGNQKNFLTWYQQKPGQPPKLLIYWASTRESGVPDRFSGSGSGTDFTLTISSLQAEDEAVYYCQNDFGFPFTFGQGTKLTAK
light: DVVLTQSPLSLPVTLGQPASISCRSSQSLENSNGNTFLNWFQQRPGQSPRLLIYKVSNRFSGVPDRFSGSGSGTDFTLKISRVEAEDVGVYYCLQVTHVPFTFGQGTKLEIKRTVAAPSVFIFPPSDEQLKSGTASVVCLLNNFYPREAKVQWKVDNALQSGNSQESVTEQDSKDSTYSLSSTLTLSKADYEKHKVYACEVTHQGLSSPVTKSFNRGEC
notes: Asymmetric: knob chain with the 3C2VH6VL5 scFv, hole chain with the 56E5VH5VL4 scFv, linker 3 (long linker); also called MBS307-8-1 + MBS307-8-2

IC50 (read off the curve) [8]: ~0.5 µg/mL
EC50 (read off the curve) [9]: ~0.1 µg/mL
EC50 (read off the curve) [10]: ~0.2 µg/mL
B3: anti-PD-L1 antibody 3C2VH6VL5 (antibody, V domains shown)
VH: QVQLVQSGAEVKKPGASVKVSCKASGYTFTDYHVNWVRQAPGQGLEWIGWIFPGSGRTFYTDKFKGRVTMTVDTSTSTVYMELSSLRSEDTAVYYCATDYGTSGYGLVYWGQGTTVTVSS
VL: DIQMTQSPSSLSASVGDRVTITCKASDRINNWLAWYQQKPGKAPKLLISGATSLETGVPSRFSGSGSGTDFTLTISSLQPEDIATYYCQQYWNIPFTFGQGTKVEIK
notes: also called 3C2VH46VL5 [sic]
